Reference: patent US20180208648A1 (SCHOLAR ROCK, published 2018)
Positions count from the first letter of the chain named.

T1: human latent GDF8 (human, UniProt O14793 24-375, biotinylated (immobilized on streptavidin biosensors), site not stated)
T1 construct: also called human latent Myostatin
T1 sequence: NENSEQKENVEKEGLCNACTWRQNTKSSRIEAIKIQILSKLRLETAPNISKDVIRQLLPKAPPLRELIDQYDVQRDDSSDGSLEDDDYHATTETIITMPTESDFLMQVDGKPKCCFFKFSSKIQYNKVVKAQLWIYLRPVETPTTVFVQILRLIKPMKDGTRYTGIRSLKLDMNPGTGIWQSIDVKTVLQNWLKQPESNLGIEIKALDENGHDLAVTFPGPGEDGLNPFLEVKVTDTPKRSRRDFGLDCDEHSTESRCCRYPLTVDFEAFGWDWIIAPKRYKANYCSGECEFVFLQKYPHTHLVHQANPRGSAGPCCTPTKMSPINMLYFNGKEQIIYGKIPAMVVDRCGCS

T2: human proGDF8 (human, UniProt O14793 24-375, biotinylated, site not stated)
T2 construct: also called hu proGDF8; human proMyostatin
T2 sequence: T1 sequence

T3: human proActivin A (human, UniProt P08476 21-426, biotinylated (immobilized on streptavidin biosensors), site not stated)
T3 construct: also called human Activin A; Inhibin-beta A pro-protein
T3 sequence: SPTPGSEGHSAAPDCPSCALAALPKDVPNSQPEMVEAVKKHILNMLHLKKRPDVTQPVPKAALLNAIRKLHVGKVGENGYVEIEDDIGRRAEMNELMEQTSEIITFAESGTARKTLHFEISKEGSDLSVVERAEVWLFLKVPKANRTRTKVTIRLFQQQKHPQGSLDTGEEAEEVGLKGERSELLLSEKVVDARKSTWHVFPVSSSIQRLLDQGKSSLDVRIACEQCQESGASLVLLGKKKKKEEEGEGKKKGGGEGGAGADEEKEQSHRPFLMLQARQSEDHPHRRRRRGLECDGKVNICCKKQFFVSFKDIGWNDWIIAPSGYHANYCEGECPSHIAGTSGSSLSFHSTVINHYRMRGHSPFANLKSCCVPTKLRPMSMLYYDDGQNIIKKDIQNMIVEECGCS

T4: murine proGDF11 (mouse, UniProt Q9Z1W4 25-405, biotinylated, site not stated)
T4 construct: also called mu proGDF11
T4 sequence: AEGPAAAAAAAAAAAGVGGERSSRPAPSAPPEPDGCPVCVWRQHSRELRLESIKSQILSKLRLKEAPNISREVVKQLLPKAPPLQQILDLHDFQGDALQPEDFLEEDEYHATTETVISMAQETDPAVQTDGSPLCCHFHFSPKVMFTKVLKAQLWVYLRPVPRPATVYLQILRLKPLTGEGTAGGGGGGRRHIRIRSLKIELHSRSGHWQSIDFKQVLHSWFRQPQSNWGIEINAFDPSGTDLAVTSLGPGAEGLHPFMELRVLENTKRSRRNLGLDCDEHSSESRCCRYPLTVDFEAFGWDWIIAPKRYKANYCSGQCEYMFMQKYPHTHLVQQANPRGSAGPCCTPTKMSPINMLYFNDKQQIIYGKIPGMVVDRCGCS

B1: GDF11 Inh-2 (antibody, V domains shown)
VH: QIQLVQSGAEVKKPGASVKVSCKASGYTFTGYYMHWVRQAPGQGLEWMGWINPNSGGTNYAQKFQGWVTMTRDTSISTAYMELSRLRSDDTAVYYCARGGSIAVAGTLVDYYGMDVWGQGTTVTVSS
VL: DIQMTQSPSSLSASVGDRVTITCQASQDISNYLNWYQQKPGKAPKLLIYDASNLETGVPSRFSGSGSGTDFTLTISSLQPEDVATYYCQKYSTAPLTFGGGTKVEIKR
notes: also called Clone GDF11 Inh-2
B2: GDF11 Inh-4 (antibody, V domains shown)
VH: QVQLVQSGAEVKKPGASVKVSCKASGYTFTSYGISWVRQAPGQGLEWMGWISAYNGNTNYAQKLQGRVTMTTDTSTSTAYMELRSLRSDDTAVYYCARTPPLWFGEYGAFDIWGQGAMVTVSS
VL: B1 VL with E81D, V83F, K90Q, Y91S, S92Y, A94T, L96I, G100Q, K103R, V104L
notes: also called Clone GDF11 Inh-4

Key:
human latent GDF8 = target: T1, human latent GDF8; assay: BLI (ForteBio Octet QKe), antigen on streptavidin biosensor, antibody in solution
human proGDF8 = target: T2, human proGDF8; assay: as above
human proActivin A = target: T3, human proActivin A; assay: as above
murine proGDF11 = target: T4, murine proGDF11; assay: BLI (ForteBio Octet)

Binder	binding result (human latent GDF8)	binding result (human proGDF8)	binding result (human proActivin A)	Kd (murine proGDF11)
B1	no binding (tested: 50 µg/mL)	no binding (tested: 50 µg/mL)	no binding (tested: 50 µg/mL)	1.73 nM
B2	no binding (tested: 50 µg/mL)	no binding (tested: 50 µg/mL)	no binding (tested: 50 µg/mL)	–
